Test results taken from publication doi:10.1101/2021.07.28.454260.

Target: HupA fused to a split luciferase fragment (positive control of the assay)
Experiment: split reporter

Substance: HupA fused to a split luciferase fragment (positive control of the assay) (natural protein)
- increase in luminescence signal after 1 hour of induction: > 2
